In assay [1] the target is T1, orthogonal hCD122 receptor (hoRb), hCD122 with H133D and Y134F (human, UniProt P14784 27-550).
T1 sequence: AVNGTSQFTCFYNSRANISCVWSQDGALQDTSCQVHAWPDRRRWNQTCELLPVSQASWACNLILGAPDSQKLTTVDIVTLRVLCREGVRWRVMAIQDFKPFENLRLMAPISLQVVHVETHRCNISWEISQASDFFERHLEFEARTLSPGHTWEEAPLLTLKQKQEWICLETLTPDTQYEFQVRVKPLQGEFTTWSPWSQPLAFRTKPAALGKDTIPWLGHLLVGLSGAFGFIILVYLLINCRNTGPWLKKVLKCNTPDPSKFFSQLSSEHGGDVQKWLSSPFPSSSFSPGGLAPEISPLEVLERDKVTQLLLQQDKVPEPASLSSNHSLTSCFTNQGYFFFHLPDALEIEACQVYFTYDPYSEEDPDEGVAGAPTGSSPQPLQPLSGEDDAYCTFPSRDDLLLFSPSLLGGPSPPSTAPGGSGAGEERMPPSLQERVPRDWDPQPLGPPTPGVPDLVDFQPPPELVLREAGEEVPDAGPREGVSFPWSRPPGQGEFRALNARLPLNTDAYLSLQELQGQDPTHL
Kind of assay: cell-based or functional assay.

The target of assay [2] is T1, orthogonal hCD122 receptor (hoRb), …. Kind of assay: cell-based or functional assay. This is another data set of the same source.
Wherever Relative Proliferation Fold Change 3F8 1:10 is given: reference of the scale not given here.
Wherever Relative Proliferation Fold Change 3F8 1:2 is given: reference of the scale not given here.
Wherever Relative Proliferation Fold Change 3F8 1:50 is given: reference of the scale not given here.
Wherever Relative Proliferation Fold Change NKL 1:10 is given: reference of the scale not given here.
Wherever Relative Proliferation Fold Change NKL 1:2 is given: reference of the scale not given here.
Wherever Relative Proliferation Fold Change NKL 1:50 is given: reference of the scale not given here.

B1: ΔT51, SQVLKA (ligand)
chain: APTSSSTKKTQLQLSQLLVLLKAILNGINNYKNPKLTRMLTFKFYMPKKAELKHLQCLEEELKPLEEVLNLAQSKNFHLRPRDLISNINVIVLELKGSETTFMCEYADETATIVEFLNRWITFCQSIISTLT
With B1, in assay [1], the “NKL Ortho Proliferation Signal 1:2” value is 12100, the “NKL Ortho Proliferation Signal 1:10” value stood at 10100, the “NKL Ortho Proliferation Signal 1:50” value was 7780 and the “Relative Proliferation Fold Change NKL 1:2” value came out at 1 fold. In assay [1], the “Relative Proliferation Fold Change NKL 1:10” value was 0.71 fold and the “Relative Proliferation Fold Change NKL 1:50” value came to 0.58 fold. Also, in assay [2], the “3F8 Ortho Proliferation Signal 1:2” value came out at 9940 cts/min, the “3F8 Ortho Proliferation Signal 1:10” value was found to be 7070 cts/min, the “3F8 Ortho Proliferation Signal 1:50” value was determined as 1060 cts/min and the “Relative Proliferation Fold Change 3F8 1:2” value came to 59.1 fold. Moreover, in assay [2], the “Relative Proliferation Fold Change 3F8 1:10” value came to 8.73 fold and the “Relative Proliferation Fold Change 3F8 1:50” value was determined as 2.17 fold.

B2: M39V, SQVLKA (ligand)
chain: APTSSSTKKTQLQLSQLLVLLKAILNGINNYKNPKLTRVLTFKFYMPKKATELKHLQCLEEELKPLEEVLNLAQSKNFHLRPRDLISNINVIVLELKGSETTFMCEYADETATIVEFLNRWITFCQSIISTLT
Turning to B2, in assay [1], the “NKL Ortho Proliferation Signal 1:2” value came out at 42800, the “NKL Ortho Proliferation Signal 1:10” value worked out at 31300, the “NKL Ortho Proliferation Signal 1:50” value is 15300 and the “Relative Proliferation Fold Change NKL 1:2” value was found to be 2.72 fold. In assay [1], the “Relative Proliferation Fold Change NKL 1:10” value is 1.85 fold and the “Relative Proliferation Fold Change NKL 1:50” value was determined as 0.92 fold. Further, in assay [2], the “3F8 Ortho Proliferation Signal 1:2” value amounted to 29200 cts/min, the “3F8 Ortho Proliferation Signal 1:10” value was 22900 cts/min, the “3F8 Ortho Proliferation Signal 1:50” value stood at 9630 cts/min and the “Relative Proliferation Fold Change 3F8 1:2” value was 110 fold. In addition, in assay [2], the “Relative Proliferation Fold Change 3F8 1:10” value is 51.3 fold and the “Relative Proliferation Fold Change 3F8 1:50” value stood at 16.7 fold.

B3: Q74H, SQVLKA (ligand)
chain: APTSSSTKKTQLQLSQLLVLLKAILNGINNYKNPKLTRMLTFKFYMPKKATELKHLQCLEEELKPLEEVLNLAHSKNFHLRPRDLISNINVIVLELKGSETTFMCEYADETATIVEFLNRWITFCQSIISTLT
Regarding B3, in assay [1], the “NKL Ortho Proliferation Signal 1:2” value was found to be 58300, the “NKL Ortho Proliferation Signal 1:10” value was 50300, the “NKL Ortho Proliferation Signal 1:50” value was determined as 23000 and the “Relative Proliferation Fold Change NKL 1:2” value was found to be 3.89 fold. Moreover, in assay [1], the “Relative Proliferation Fold Change NKL 1:10” value worked out at 3.18 fold and the “Relative Proliferation Fold Change NKL 1:50” value worked out at 1.6 fold. In addition, in assay [2], the “3F8 Ortho Proliferation Signal 1:2” value was found to be 35100 cts/min, the “3F8 Ortho Proliferation Signal 1:10” value was determined as 28700 cts/min, the “3F8 Ortho Proliferation Signal 1:50” value is 21200 cts/min and the “Relative Proliferation Fold Change 3F8 1:2” value turned out to be 64.7 fold. Also, in assay [2], the “Relative Proliferation Fold Change 3F8 1:10” value was determined as 42.9 fold and the “Relative Proliferation Fold Change 3F8 1:50” value came out at 53 fold.

B4: F42K, SQVLKA (ligand)
chain: APTSSSTKKTQLQLSQLLVLLKAILNGINNYKNPKLTRMLTKKFYMPKKATELKHLQCLEEELKPLEEVLNLAQSKNFHLRPRDLISNINVIVLELKGSETTFMCEYADETATIVEFLNRWITFCQSIISTLT
As to B4, in assay [1], the “NKL Ortho Proliferation Signal 1:2” value is 11900, the “NKL Ortho Proliferation Signal 1:10” value is 10500, the “NKL Ortho Proliferation Signal 1:50” value stood at 8730 and the “Relative Proliferation Fold Change NKL 1:2” value was determined as 0.83 fold. Besides, in assay [1], the “Relative Proliferation Fold Change NKL 1:10” value amounted to 0.6 fold and the “Relative Proliferation Fold Change NKL 1:50” value worked out at 0.52 fold. In assay [2], the “3F8 Ortho Proliferation Signal 1:2” value came out at 10300 cts/min, the “3F8 Ortho Proliferation Signal 1:10” value turned out to be 5760 cts/min, the “3F8 Ortho Proliferation Signal 1:50” value stood at 1570 cts/min and the “Relative Proliferation Fold Change 3F8 1:2” value amounted to 43.5 fold. Also, in assay [2], the “Relative Proliferation Fold Change 3F8 1:10” value came out at 12.7 fold and the “Relative Proliferation Fold Change 3F8 1:50” value worked out at 2.2 fold.

B5: L80F, SQVLKA (ligand)
chain: APTSSSTKKTQLQLSQLLVLLKAILNGINNYKNPKLTRMLTFKFYMPKKATELKHLQCLEEELKPLEEVLNLAQSKNFHFRPRDLISNINVIVLELKGSETTFMCEYADETATIVEFLNRWITFCQSIISTLT
As for B5, in assay [1], the “NKL Ortho Proliferation Signal 1:2” value came to 61200, the “NKL Ortho Proliferation Signal 1:10” value worked out at 67800, the “NKL Ortho Proliferation Signal 1:50” value was found to be 33200 and the “Relative Proliferation Fold Change NKL 1:2” value is 4.24 fold. For the same molecule, in assay [1], the “Relative Proliferation Fold Change NKL 1:10” value was 4.14 fold and the “Relative Proliferation Fold Change NKL 1:50” value stood at 2.27 fold. Moreover, in assay [2], the “3F8 Ortho Proliferation Signal 1:2” value worked out at 37200 cts/min, the “3F8 Ortho Proliferation Signal 1:10” value turned out to be 26800 cts/min, the “3F8 Ortho Proliferation Signal 1:50” value amounted to 25800 cts/min and the “Relative Proliferation Fold Change 3F8 1:2” value is 1.01 fold. In assay [2], the “Relative Proliferation Fold Change 3F8 1:10” value is 2.8 fold and the “Relative Proliferation Fold Change 3F8 1:50” value was 16.8 fold.

B6: T51I, SQVLKA (ligand)
chain: APTSSSTKKTQLQLSQLLVLLKAILNGINNYKNPKLTRMLTFKFYMPKKAIELKHLQCLEEELKPLEEVLNLAQSKNFHLRPRDLISNINVIVLELKGSETTFMCEYADETATIVEFLNRWITFCQSIISTLT
Regarding B6, in assay [1], the “NKL Ortho Proliferation Signal 1:2” value stood at 50800, the “NKL Ortho Proliferation Signal 1:10” value amounted to 37900, the “NKL Ortho Proliferation Signal 1:50” value is 18500 and the “Relative Proliferation Fold Change NKL 1:2” value worked out at 3.57 fold. In assay [1], the “Relative Proliferation Fold Change NKL 1:10” value was determined as 2.64 fold and the “Relative Proliferation Fold Change NKL 1:50” value amounted to 1.4 fold. For the same molecule, in assay [2], the “3F8 Ortho Proliferation Signal 1:2” value was determined as 31900 cts/min, the “3F8 Ortho Proliferation Signal 1:10” value is 20200 cts/min, the “3F8 Ortho Proliferation Signal 1:50” value worked out at 11600 cts/min and the “Relative Proliferation Fold Change 3F8 1:2” value was 111 fold. For the same molecule, in assay [2], the “Relative Proliferation Fold Change 3F8 1:10” value stood at 43.1 fold and the “Relative Proliferation Fold Change 3F8 1:50” value is 15.6 fold.

B7: Q13W SQVLKA (ligand)
chain: APTSSSTKKTQLWLSQLLVLLKAILNGINNYKNPKLTRMLTFKFYMPKKATELKHLQCLEEELKPLEEVLNLAQSKNFHLRPRDLISNINVIVLELKGSETTFMCEYADETATIVEFLNRWITFCQSIISTLT
On to B7, for which, in assay [1], the “NKL Ortho Proliferation Signal 1:2” value is 13700, the “NKL Ortho Proliferation Signal 1:10” value is 12900, the “NKL Ortho Proliferation Signal 1:50” value is 8730 and the “Relative Proliferation Fold Change NKL 1:2” value was determined as 1.24 fold. In assay [1], the “Relative Proliferation Fold Change NKL 1:10” value stood at 0.84 fold and the “Relative Proliferation Fold Change NKL 1:50” value was determined as 0.63 fold. In addition, in assay [2], the “3F8 Ortho Proliferation Signal 1:2” value was found to be 27000 cts/min, the “3F8 Ortho Proliferation Signal 1:10” value worked out at 16900 cts/min, the “3F8 Ortho Proliferation Signal 1:50” value is 6420 cts/min and the “Relative Proliferation Fold Change 3F8 1:2” value came to 148 fold. For the same molecule, in assay [2], the “Relative Proliferation Fold Change 3F8 1:10” value came to 22.2 fold and the “Relative Proliferation Fold Change 3F8 1:50” value is 10.9 fold.

B8: Q74S, SQVLKA (ligand)
chain: APTSSSTKKTQLQLSQLLVLLKAILNGINNYKNPKLTRMLTFKFYMPKKATELKHLQCLEEELKPLEEVLNLASSKNFHLRPRDLISNINVIVLELKGSETTFMCEYADETATIVEFLNRWITFCQSIISTLT
For B8, in assay [1], the “NKL Ortho Proliferation Signal 1:2” value was 54600, the “NKL Ortho Proliferation Signal 1:10” value amounted to 65700, the “NKL Ortho Proliferation Signal 1:50” value is 35000 and the “Relative Proliferation Fold Change NKL 1:2” value came out at 4.07 fold. For the same molecule, in assay [1], the “Relative Proliferation Fold Change NKL 1:10” value was 4.17 fold and the “Relative Proliferation Fold Change NKL 1:50” value was found to be 2.44 fold. In addition, in assay [2], the “3F8 Ortho Proliferation Signal 1:2” value is 36400 cts/min, the “3F8 Ortho Proliferation Signal 1:10” value came to 32500 cts/min, the “3F8 Ortho Proliferation Signal 1:50” value was determined as 27100 cts/min and the “Relative Proliferation Fold Change 3F8 1:2” value was determined as 18.7 fold. In assay [2], the “Relative Proliferation Fold Change 3F8 1:10” value was found to be 56.7 fold and the “Relative Proliferation Fold Change 3F8 1:50” value worked out at 33.8 fold.

B9: Q74N, SQVLKA (ligand)
chain: APTSSSTKKTQLQLSQLLVLLKAILNGINNYKNPKLTRMLTFKFYMPKKATELKHLQCLEEELKPLEEVLNLANSKNFHLRPRDLISNINVIVLELKGSETTFMCEYADETATIVEFLNRWITFCQSIISTLT
Regarding B9, in assay [1], the “NKL Ortho Proliferation Signal 1:2” value came to 55100, the “NKL Ortho Proliferation Signal 1:10” value was 47400, the “NKL Ortho Proliferation Signal 1:50” value came out at 22600 and the “Relative Proliferation Fold Change NKL 1:2” value came to 4.23 fold. Also, in assay [1], the “Relative Proliferation Fold Change NKL 1:10” value came out at 3.18 fold and the “Relative Proliferation Fold Change NKL 1:50” value was determined as 1.67 fold. For the same molecule, in assay [2], the “3F8 Ortho Proliferation Signal 1:2” value came to 34200 cts/min, the “3F8 Ortho Proliferation Signal 1:10” value turned out to be 36400 cts/min, the “3F8 Ortho Proliferation Signal 1:50” value turned out to be 21900 cts/min and the “Relative Proliferation Fold Change 3F8 1:2” value is 116 fold. In addition, in assay [2], the “Relative Proliferation Fold Change 3F8 1:10” value stood at 96.8 fold and the “Relative Proliferation Fold Change 3F8 1:50” value amounted to 17.5 fold.

B10: H55Y, SQVLKA (ligand)
chain: APTSSSTKKTQLQLSQLLVLLKAILNGINNYKNPKLTRMLTFKFYMPKKATELKYLQCLEEELKPLEEVLNLAQSKNFHLRPRDLISNINVIVLELKGSETTFMCEYADETATIVEFLNRWITFCQSIISTLT
As to B10, in assay [1], the “NKL Ortho Proliferation Signal 1:2” value came out at 47100, the “NKL Ortho Proliferation Signal 1:10” value stood at 37100, the “NKL Ortho Proliferation Signal 1:50” value came out at 17800 and the “Relative Proliferation Fold Change NKL 1:2” value came to 3.72 fold. Besides, in assay [1], the “Relative Proliferation Fold Change NKL 1:10” value worked out at 2.34 fold and the “Relative Proliferation Fold Change NKL 1:50” value was 1.22 fold. In assay [2], the “3F8 Ortho Proliferation Signal 1:2” value stood at 24600 cts/min, the “3F8 Ortho Proliferation Signal 1:10” value was found to be 29500 cts/min, the “3F8 Ortho Proliferation Signal 1:50” value worked out at 16500 cts/min and the “Relative Proliferation Fold Change 3F8 1:2” value was determined as 63 fold. Also, in assay [2], the “Relative Proliferation Fold Change 3F8 1:10” value stood at 23.5 fold and the “Relative Proliferation Fold Change 3F8 1:50” value came to 16.7 fold.

For the origin of these results see patent US20210196796A1 (SYNTHEKINE, published 2021).
